Molecular target: T1, ectodomain of human CD4 (26-396 amino acid residues), recombinant (human, UniProt P01730 26-396)
T1 construct: CD4, human, ectodomain, residues 26-396; Cloned into pfastbac1 with the GP64 signal peptide for secretion and a preScission protease site; also called recombinant CD4; CD4 protein
Experiment: ELISA; 5 μg salivary gland protein coated overnight at 4°C on high binding 96-well plates, blocked with 1% BSA in PBST; 1 μg CD4 or DC-SIGN ectodomain added at 37°C for 1 h; detected with rabbit anti-CD4 or HRP anti-DC-SIGN monoclonal antibody, TMB, read at 450 nm
Settings: both partners purified

B1: recombinant Ae. aegypti venom allergen 1 (AaVA-1) (natural protein, Aedes aegypti, UniProt A0A1S4EWW7 22-255, looked up)
chain: NYCDQSLCRRGPHVACNAPTQFGSACGQEPKFVKMDARMKNLLLKKHNELRAEIACGKHGFPQAARMPTLVWDDELAHIASFNARKCIFAHDKCRNTREFKFAGQNLAITAFAGYNFQAADRAENFTQEWFNEHKDCPKSYVDSYPMSHSGPQIGHFTQMVNDRAWKMGCSMVHYKNGRVIKYYLVCNYSMTNMIEEPIYTRGSAGSKCQTGQNPQYRGLCSPREKVRSESYRG
notes: Made with the GP64 signal peptide, so its own signal peptide was probably left out; also called AVAa-1
  binding result: binds

From PMC9484696, “Identification of Aedes aegypti salivary gland proteins interacting with human immune receptor proteins” (PLoS Neglected Tropical Diseases, 2022)
